Source: patent US20190071490A1, “Preventing Post-Ictal Headaches” (Beth Israel Deaconess Medical Center, Inc., priority 2017, published 2019)

How the values were obtained:
[1] = molecular target: human α-CGRP 1-37 (WT) (human); experiment: Biacore, 25°C, Fab over biotinylated CGRP on SA chip
[2] = molecular target: human α-CGRP 1-37 (WT) (human); experiment: Biacore, 37°C, Fab over biotinylated CGRP on SA chip
rat α-CGRP (1-37) (rat) = experiment: as above
[3] = molecular target: human α-CGRP fragment 25-37 (human); experiment: Biacore, 25°C, Fab over biotinylated fragment (FIG. 1)
[4] = molecular target: human α-CGRP 1-37 (WT) (human); experiment: Biacore SPR, 25 °C, Fab flowed across N-biotinylated peptide on SA chip
[5] = molecular target: human α-CGRP K35A (19-37) (human); experiment: Biacore SPR, 25 °C, Fab flowed across peptide on SA chip; KD of alanine mutant relative to parent fragment 19-37
[6] = molecular target: human α-CGRP F27A (25-37) (human); experiment: Biacore SPR, 25 °C, Fab flowed across peptide on SA chip; KD of alanine mutant relative to parent fragment 25-37
[7] = molecular target: human α-CGRP G33A (25-37) (human); experiment: as above
[8] = molecular target: human α-CGRP N31A (25-37) (human); experiment: as above
[9] = molecular target: human α-CGRP P29A (25-37) (human); experiment: as above
[10] = molecular target: human α-CGRP S34A (25-37) (human); experiment: as above
[11] = molecular target: human α-CGRP T30A (25-37) (human); experiment: as above
[12] = molecular target: human α-CGRP V28A (25-37) (human); experiment: as above
[13] = molecular target: human α-CGRP V32A (25-37) (human); experiment: as above
[14] = molecular target: human α-CGRP fragment 19-37 (human); experiment: Biacore SPR, 25 °C, Fab flowed across N-biotinylated peptide on SA chip; mean ± SD of two independent measurements on different chips
[15] = molecular target: human α-CGRP fragment 25-37 (human); experiment: as above

Sequence of human α-CGRP 1-37 (WT) (human) (peptide, as listed by the source): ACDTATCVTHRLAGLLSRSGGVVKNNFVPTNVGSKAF
Sequence of rat α-CGRP (1-37) (rat) (peptide, as listed by the source): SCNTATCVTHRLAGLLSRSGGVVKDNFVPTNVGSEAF

Kd [1]: 61 nM
Kd [2]: 139 nM
Kd (rat α-CGRP (1-37) (rat)): 3.4 nM
fold lower affinity than to full length human α-CGRP [3]: 6 fold
Kd [4]: 60.5 nM
KD(mutant/parent) [5]: 0.3
KD(mutant/parent) [6]: 0.8
KD(mutant/parent) [7]: 1.3
KD(mutant/parent) [8]: 0.3
KD(mutant/parent) [9]: 0.2
KD(mutant/parent) [10]: 0.8
KD(mutant/parent) [11]: 0.2
KD(mutant/parent) [12]: 0.8
KD(mutant/parent) [13]: 0.9
Kd [14]: 52 nM
Kd [15]: 296 nM
Substance: anti-CGRP antibody 4901, Fab fragment
